In general, Kd refers to a measure of binding affinity in units of concentration. High values mean weaker binding, low ones tighter binding. As a reminder, the koff is the first-order rate constant of dissociation. Low values mean a long-lived complex, high ones a short-lived complex. By kon is commonly meant a measure of how fast the partners come together. Low readings indicate slower complex formation, high ones faster complex formation.

Where a chain is given by its changes, count along the chain named. “Also recorded” adds a separate entry of the source.

In assay [1] the test system is various tumor cell lines (Eval positive and Eval negative). Description: Cytokine production of Eval-CAR-T co-cultured with tumor cell lines (intracellular staining, flow cytometry). The assay is classed as cell-based, human. The note with it: co-culture 1:1, 6 hours, Day 17 cells. As for the experimental part:
Next, the cytokine production capacity of the Eval-CAR-T using the anti-human Eval mouse antibody sequence was analyzed. Specifically, CAR-T prepared as described above was cultured until day 17, and the cells were co-cultured with various main cell lines in 1:1. After co-culturing for 6 hours, immobilization and intracellular staining (BD cytofix/cytoperm buffer) were conducted to stain the cells with IFN-gamma (IFN-γ).
The experiment was conducted by using the above-described Eval-CAR-Ts at Day 17. Specifically, the Eval-CAR-Ts were co-cultured with tumor cell lines in 1:1, and the cells were immobilized and stained in the same methods as described above after 6 hours, and intracellular IFN-gamma and IL-2 were evaluated with flow cytometry.
The experiment was conducted by using hEva1-CAR-Ts at Day 17. Specifically, hEva1-CAR-Ts were co-cultured with tumor cell lines in 1:1, and the cells were immobilized and stained in the same manner as described above after 6 hours, and intracellular IFN-gamma and IL-2 were evaluated with flow cytometry. These figures show the percentages at which the cytokine was positive among the CD8 positive cells.
The experiment was conducted by using the above-described hEva1-CAR-Ts at Day 17. Specifically, the hEva1-CAR-Ts were co-cultured with tumor cell lines in 1:1, and the cells were immobilized and stained in the same manner as described above after […], and intracellular IFN-gamma and IL-2 were evaluated with flow cytometry. These figures show the percentages at which each cytokine was positive among the CD8 positive cells.
For orientation: A flow cytometer gives signals particle by particle.

A further assay relates to Eval-positive HuCCT-1. Description: Amplification of Eval-CAR-T after antigen stimulation (co-culture with irradiated Eval-positive HuCCT-1). The assay is classed as cell-based, human. As for the experimental part:
Eval-positive HuCCT-1, was irradiated with a radioactive ray of 100 Gy, and was co-cultured with the CAR-Ts in 1:1, and the amplification efficiencies of these were analyzed. In FIG. 3J, amplification efficiencies in time series are shown. In FIG. 3K, the amplification factors at Day 4 were plotted.
In the same manner as described above, Eval-positive HuCCT-1, was irradiated with a radioactive ray of 100 Gy, and was co-cultured with the CAR-T-cells in 1:1. Then, 50 U/ml of IL-2 was added once every three days, at Day 1, 4, and 7, followed by culturing. In FIG. 3L, the respective amplification efficiencies in time series are shown. In FIG. 3M, the amplification factors at Day 18 were plotted.
In the same manner as described above, Eval-positive HuCCT-1, was irradiated with a radioactive ray of 100 Gy, and was co-cultured with hEva1 CAR-T-cells in 1:1.
In the same manner as described above, Eval-positive HuCCT-1, was irradiated with a radioactive ray of 100 Gy, and was co-cultured with hEva1-CAR-Ts in 1:1.

For assay [2], the target named is T1, hEva1-mouse Fc (human, UniProt O60487 27-154, limits assumed).
T1 construct: SPR analyte; the '1' is probably the first concentration (1 nM); also called hEva1-mouse Fc1 (so in the source); not shown: mouse Fc
T1 sequence: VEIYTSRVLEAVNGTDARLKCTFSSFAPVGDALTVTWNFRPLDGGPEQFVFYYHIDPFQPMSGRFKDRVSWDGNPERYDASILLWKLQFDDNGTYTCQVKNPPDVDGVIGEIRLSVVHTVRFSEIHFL
Briefly: SPR (BiaCore T200), single-cycle kinetics; antibody captured by anti-human IgG on CM5 chip, hEva1-mouse Fc as analyte; antibody made in CHO cells. For orientation: SPR reads the build-up and loss of mass on a sensor chip optically.

For assay [3], the target named is T1, hEva1-mouse Fc. Description: SPR (BiaCore T200), single-cycle kinetics; antibody captured by anti-human IgG on CM5 chip, hEva1-mouse Fc as analyte; antibody made in HEK293T cells. As for the experimental part: (§1) The dissociation constants and association constants of the humanized antibodies and the like were analyzed by using surface plasmon resonance (SPR, product name: BiaCore T200 (manufactured by GE healthcare)).
Specifically, first, human IgG capture antibodies were immobilized on a CM5 chip by an amine coupling method. […] Then, the kinetics analysis on the anti-Eval antibody and hEva1 was conducted by a single-cycle method using the following measurement conditions.

In assay [4] the test system is hEva1-mouse Fc. Description: Surface plasmon resonance kinetics analysis (BiaCore T200, single-cycle). As to conditions: SPR, antibody captured 5 nM, analyte hEva1-mouse Fc 1-250 nM, HBS-EP+ pH 7.4. Type of assay: binding, human. How it is done:
as §1
Specifically, first, human IgG capture antibodies were immobilized on a CM5 chip by an amine coupling method. This immobilization was conducted in both reference cells and active cells. Then, the kinetics analysis on the anti-Eval antibody and hEva1 was conducted by a single-cycle method using the following measurement conditions.
• Sample compartment temperature: 10° C. • Running buffer: HBS-EP+buffer, pH 7.4 • Capturing molecule: Human IgG antibody, reference & active cells • Ligand: Various antibodies 5 nM, active cells only • Analyte: hEva1-mouse Fc1, 5, 25, 125, 250 nM, reference & active cells • Regeneration buffer: 3M MgCl2, reference & active cells • 3 cycles of Blanks (Analyte zero concentration)

[5] abbreviates: 50 U/ml IL-2 at Day 1, 4, 7, co-culture 1:1 with HuCCT-1 irradiated 100 Gy.
[6] abbreviates: absence of IL-2, co-culture 1:1 with HuCCT-1 irradiated 100 Gy.

Turning to “30aa: mouse antibody-derived Eval-CAR-T with spacer length 30aa (SEQ ID NO: 60) (EPKSSDKTHTSPPCPAPEFLGGPSVFLFPP; Hinge region:30aa)”, in assay [1], the “cytokine production (intracellular IFN-gamma and IL-2)” value is “excellent cytokine productions”. In addition, the “amplification efficiency after Eval stimulation” value is reported as “cell amplifications tended to be better” in the assay on Eval-positive HuCCT-1 (setting [5]) and “higher cell amplifications” in the assay with Eval-positive HuCCT-1 (setting [6]).
Regarding “15aa: mouse antibody-derived Eval-CAR-T with spacer length 15aa (SEQ ID NO: 59) (EPKSSDKTHTSPPCP; Hinge region:15aa)”, the “amplification efficiency after Eval stimulation” value with Eval-positive HuCCT-1 (setting [5]) is listed as “cell amplifications tended to be better; also recorded: most excellent in cell growth”; in the assay with Eval-positive HuCCT-1 (setting [6]) it was “higher cell amplifications”.

B1: chimeric human IgG1 (constant regions of the B2E5-48 mouse antibody replaced by those of human IgG type 1) (antibody, V domains shown)
VH: QVQLQQPGAELVKPGASVKLSCKASGYTFTNYWMHWVKLRPGQGFEWIGEINPTNGGTDYNEKFKRKATLTVDKSSSTAYMQLSSLTSEDSAVYYCTIYTTALDYWGQGTTLTVSS
VL: QIVLTQSPALMSASPGERVTLTCSASSSVGYMYWYQQKPGSSPKPWIYVTSNLASGVPARFSGSGSGTSYSLTISSMEAEDAATYYCQQWSSNPPTFGAGTKLELK
notes: Mouse B2E5-48 variable regions on human IgG1 constant regions; The same construct was made in HEK293T cells and in CHO cells and both preparations were measured; also called Chimeric antibody (CHO); Chimeric antibody (293T)
In the assay with hEva1-mouse Fc [2], B1 displayed a Kd of 445 nM, a koff of 0.00845 s⁻¹ and a kon of 19000 M⁻¹ s⁻¹. In the assay with hEva1-mouse Fc [3], this molecule displayed a Kd of 482 nM, a koff of 0.00947 s⁻¹ and a kon of 19600 M⁻¹ s⁻¹.

B2: Chimeric antibody (CHO): chimeric human IgG1 obtained by substituting the constant regions of the B2E5-48 mouse antibody with those of human IgG type 1; control (antibody, V domains shown)
VH: B1 VH
VL: B1 VL
In the assay on hEva1-mouse Fc [4], B2 had a ka of 19010 M⁻¹ s⁻¹ and a kd of 0.008447 s⁻¹.

B3: Chimeric antibody (293T): chimeric human IgG1 obtained by substituting the constant regions of the B2E5-48 mouse antibody with those of human IgG type 1; control (antibody, V domains shown)
VH: B1 VH
VL: B1 VL
Regarding B3, in the assay with hEva1-mouse Fc [4], the ka stood at 19640 M⁻¹ s⁻¹ and the kd was 0.00947 s⁻¹.

B4: 125aa: mouse antibody-derived Eval-CAR-T with spacer length 125aa (SEQ ID NO: 62) (protein)
chain: EPKSSDKTHTSPPCPAPEFLGGPSVFLFPPKPKDTLMISRTPEVTCVVVDVSQEDPEVQFNWYVDGVEVHNAKTKPREEQFNSTYRVVSVLTVLHQDWLNGKEYKCKVSNKGLPSSIEKTISKAK
modifications: Hinge region:125aa
For the molecule B4, in assay [1], the “cytokine production (intracellular IFN-gamma and IL-2)” value is “excellent cytokine productions”.

B5: H3-L4: humanized B2E5-48 IgG1, VH H3 (SEQ ID NO: 16), VL L4 (SEQ ID NO: 8) (antibody, V domains shown)
VH: QVQLVQSGSELKKPGASVKVSCKASGYTFTNYWMHWVRQAPGQGLEWIGEINPTNGGTDYNEGFTGRFVLSVDKSSSTAYLQISSLKAEDTAVYYCTIYTTALDYWGQGTLVTVSS
VL: DIQLTQSPSFLSASVGDRVTITCRASSSVGYMYWYQQKPGKAPKPLIYVTSNLASGVPSRFSGSGSGTEYTLTISSLQPEDFATYYCQQWSSNPPTFGQGTKLEIK
modifications: Variable Region of Heavy Chain 3 (Humanized B2E5-48); Variable Region of Light Chain 4 (Humanized B2E5-48)
In the assay on hEva1-mouse Fc [4], B5 came in with a ka of 15800 M⁻¹ s⁻¹ and a kd of 0.0138 s⁻¹.

B6: H4-L3: humanized B2E5-48 IgG1, VH H4 (SEQ ID NO: 14), VL L3 (SEQ ID NO: 10) (antibody, V domains shown)
VH: B5 VH with I48M, L70F, S76V
VL: B5 VL with D1Q
modifications: Variable Region of Heavy Chain 4 (Humanized B2E5-48); Variable Region of Light Chain 3 (Humanized B2E5-48)
In the assay on hEva1-mouse Fc [4], B6 yielded a ka of 15480 M⁻¹ s⁻¹ and a kd of 0.01357 s⁻¹.

B7: H4-L2: humanized B2E5-48 IgG1, VH H4 (SEQ ID NO: 14), VL L2 (SEQ ID NO: 7) (antibody, V domains shown)
VH: B5 VH with I48M, L70F, S76V
VL: EIVLTQSPATLSLSPGERATLSCRASSSVGYMYWYQQKPGQAPRPLIYVTSNRATGIPARFSGSGSGTDYTLTISSLEPEDFAVYYCQQWSSNPPTFGQGTKLEIK
modifications: Variable Region of Heavy Chain 4 (Humanized B2E5-48); Variable Region of Light Chain 2 (Humanized B2E5-48)
Take B7: in the assay on hEva1-mouse Fc [4], the ka worked out at 18980 M⁻¹ s⁻¹ and the kd is 0.01457 s⁻¹.

B8: H4-L4: humanized B2E5-48 IgG1, VH H4 (SEQ ID NO: 14), VL L4 (SEQ ID NO: 8) (antibody, V domains shown)
VH: B5 VH with I48M, L70F, S76V
VL: B5 VL
modifications: Variable Region of Heavy Chain 4 (Humanized B2E5-48); Variable Region of Light Chain 4 (Humanized B2E5-48)
As for B8, in the assay with hEva1-mouse Fc [4], the ka amounted to 15340 M⁻¹ s⁻¹ and the kd came to 0.01525 s⁻¹.

For the origin of these results see patent publication US20250186602A1, “HUMANIZED ANTIBODY THAT BONDS TO EVA1 PROTEIN OR FUNCTIONAL FRAGMENT THEREOF, ANTIBODY-DRUG CONJUGATE AND CHIMERIC ANTIGEN RECEPTOR” (CURED INC., priority 2022, published 2025).
